Results on one molecule are retold here after patent US20210002376A1 (UNIVERSIT T STUTTGART, published 2021).

In one assay the target is T1, TNFR2 (on Kym-1 cells) (UniProt P20333 23-461, limits assumed).
T1 sequence (looked up): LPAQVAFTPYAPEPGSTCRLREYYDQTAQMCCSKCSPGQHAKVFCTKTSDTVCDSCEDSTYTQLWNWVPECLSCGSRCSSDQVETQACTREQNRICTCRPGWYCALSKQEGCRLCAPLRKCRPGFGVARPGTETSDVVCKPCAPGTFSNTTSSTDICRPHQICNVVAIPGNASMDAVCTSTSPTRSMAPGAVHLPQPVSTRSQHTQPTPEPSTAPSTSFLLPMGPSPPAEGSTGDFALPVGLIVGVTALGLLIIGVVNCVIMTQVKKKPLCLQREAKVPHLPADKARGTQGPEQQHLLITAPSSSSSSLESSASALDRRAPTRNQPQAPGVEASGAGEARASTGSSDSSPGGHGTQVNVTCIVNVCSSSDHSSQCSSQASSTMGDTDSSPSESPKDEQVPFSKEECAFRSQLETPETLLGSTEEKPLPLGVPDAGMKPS
Put plainly: cell-based or functional assay.

A further assay deals with T2, TNFR1-Fc fusion protein (UniProt P19438 29-197).
T2 construct: range 29-197; Coated antigen in ELISA; not shown: Fc part of the fusion, not described
T2 sequence (looked up): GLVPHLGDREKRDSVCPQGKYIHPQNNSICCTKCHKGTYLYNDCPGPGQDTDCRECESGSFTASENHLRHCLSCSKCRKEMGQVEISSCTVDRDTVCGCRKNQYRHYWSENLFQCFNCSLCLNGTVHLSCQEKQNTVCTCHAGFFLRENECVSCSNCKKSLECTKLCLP
Put plainly: ELISA, coated TNFR1-Fc, anti-human Fab-HRP. In general terms: ELISA stands for enzyme-linked immunosorbent assay.

Assay [1] has as its target T3, TNFR2-Fc (Enbrel) fusion protein (UniProt P20333 23-257).
T3 construct: extracellular domain; Commercial product (Enbrel) used as coated antigen
T3 sequence (looked up): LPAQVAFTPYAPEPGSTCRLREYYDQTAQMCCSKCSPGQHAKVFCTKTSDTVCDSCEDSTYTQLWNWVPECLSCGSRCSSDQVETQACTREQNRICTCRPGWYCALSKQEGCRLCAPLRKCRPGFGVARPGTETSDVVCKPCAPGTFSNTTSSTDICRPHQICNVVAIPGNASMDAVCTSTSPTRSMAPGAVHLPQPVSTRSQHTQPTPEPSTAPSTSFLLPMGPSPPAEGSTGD
Put plainly: ELISA, coated TNFR2-Fc (Enbrel), anti-human Fab-HRP.

B1: DbTNFR2xTNFR2-Ig (antibody, human IgG1, kappa)
heavy: QVQLQQSGAEVKKPGSAVKVSCKASGGTFSSYAISWVRQAPGQGLEWMGRIIPILGIANYAQKFQGRVTITADKSTSTAYMELSSLRSEDTAVYYCARDGLGDAFDIWGQGTMVTVSSGGGGSQSALTQPRSVSGSPGQSITISCTGTSSDVGGYNYVSWYQQHPGKAPKLMIYDVSNRPSGVSNRFSGSKSGNTASLTISGLQAEDEADYYCSSYTSSSTLVVFGGGTKLTVLASTKGPSVFPLAPSSKSTSGGTAALGCLVKDYFPEPVTVSWNSGALTSGVHTFPAVLQSSGLYSLSSVVTVPSSSLGTQTYICNVNHKPSNTKVDKKVEPKSCDKTHTCPPCPAPPVAGPSVFLFPPKPKDTLMISRTPEVTCVVVDVSHEDPEVKFNWYVDGVEVHNAKTKPREEQYNSTYRVVSVLTVLHQDWLNGKEYKCKVSNKGLPSSIEKTISKAKGQPREPQVYTLPPSRDELTKNQVSLTCLVKGFYPSDIAVEWESNGQPENNYKTTPPVLDSDGSFFLYSKLTVDKSRWQQGNVFSCSVMHEALHNHYTQKSLSLSPGK
light: QVQLQQSGAEVKKPGSAVKVSCKASGGTFSSYAISWVRQAPGQGLEWMGRIIPILGIANYAQKFQGRVTITADKSTSTAYMELSSLRSEDTAVYYCARDGLGDAFDIWGQGTMVTVSSGGGGSQSALTQPRSVSGSPGQSITISCTGTSSDVGGYNYVSWYQQHPGKAPKLMIYDVSNRPSGVSNRFSGSKSGNTASLTISGLQAEDEADYYCSSYTSSSTLVVFGGGTKLTVLRTVAAPSVFIFPPSDEQLKSGTASVVCLLNNFYPREAKVQWKVDNALQSGNSQESVTEQDSKDSTYSLSSTLTLSKADYEKHKVYACEVTHQGLSSPVTKSFNRGEC
notes: variable domains originate from IgG15
B1: in the assay with TNFR2 (on Kym-1 cells), the “EC50 of cell death induction, Kym-1 cells, MTT assay after 24 hours” value is roughly 0.056 nM and the “fold increase of bioactivity against the bivalent antibody” value is roughly 500 fold. For the same molecule, the binding result in the assay with TNFR1-Fc fusion protein was “no binding”. The same molecule had an EC50 in assay [1] of 0.7 nM.

In general, EC50 refers to the concentration needed to bring the measured effect to its halfway point.
